Assay results as given in US9062100B2, “Anti-human TROP-2 antibody having anti-tumor activity in vivo” (LIVTECH, INC., dated 2015).
Where no end group is shown, it is not given here.

Tests used:
human TROP-2 (hTROP-2) [1] = target: T1, human TROP-2 (hTROP-2) (human); assay: FACS on PK-59 cells
T1 chain: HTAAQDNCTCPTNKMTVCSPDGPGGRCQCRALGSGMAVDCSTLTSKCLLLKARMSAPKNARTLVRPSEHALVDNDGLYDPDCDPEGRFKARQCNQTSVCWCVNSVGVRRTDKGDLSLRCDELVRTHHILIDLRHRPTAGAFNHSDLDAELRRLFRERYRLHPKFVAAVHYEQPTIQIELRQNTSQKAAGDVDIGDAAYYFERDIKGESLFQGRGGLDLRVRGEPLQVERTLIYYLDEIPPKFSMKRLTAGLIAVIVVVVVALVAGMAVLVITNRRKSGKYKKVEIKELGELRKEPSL

Table 8 peptide No. 7 = target: T2, Table 8 peptide No. 7 (human, not fully specified); assay: PEPSCAN CLIPS peptide ELISA
T2 peptide: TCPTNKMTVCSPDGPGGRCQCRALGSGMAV

Table 8 peptide No. 10 = target: T3, Table 8 peptide No. 10 (human, not fully specified); assay: PEPSCAN CLIPS peptide ELISA
T3 peptide: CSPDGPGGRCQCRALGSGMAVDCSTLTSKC

Table 8 peptide No. 5 = target: T4, Table 8 peptide No. 5 (human, not fully specified); assay: PEPSCAN CLIPS peptide ELISA
T4 peptide: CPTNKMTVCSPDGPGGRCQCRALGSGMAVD

Table 8 peptide No. 8 = target: T5, Table 8 peptide No. 8 (human, not fully specified); assay: PEPSCAN CLIPS peptide ELISA
T5 peptide: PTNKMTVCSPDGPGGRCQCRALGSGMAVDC

Table 8 peptide No. 17 = target: T6, Table 8 peptide No. 17 (human, not fully specified); assay: PEPSCAN CLIPS peptide ELISA
T6 peptide: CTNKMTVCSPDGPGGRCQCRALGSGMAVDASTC

Table 8 peptide No. 6 = target: T7, Table 8 peptide No. 6 (human, not fully specified); assay: PEPSCAN CLIPS peptide ELISA
T7 peptide: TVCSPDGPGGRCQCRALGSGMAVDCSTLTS

Table 8 peptide No. 18 = target: T8, Table 8 peptide No. 18 (human, not fully specified; cysteine pairing not given here); assay: PEPSCAN CLIPS peptide ELISA
T8 peptide: TVCSPDGPGGRCQCR

Table 8 peptide No. 16 = target: T9, Table 8 peptide No. 16 (human, not fully specified); assay: PEPSCAN CLIPS peptide ELISA
T9 peptide: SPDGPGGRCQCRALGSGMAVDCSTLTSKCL

Table 8 peptide No. 19 = target: T10, Table 8 peptide No. 19 (human, not fully specified); assay: PEPSCAN CLIPS peptide ELISA
T10 peptide: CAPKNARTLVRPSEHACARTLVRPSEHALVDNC

Table 8 peptide No. 15 = target: T11, Table 8 peptide No. 15 (human, not fully specified); assay: PEPSCAN CLIPS peptide ELISA
T11 peptide: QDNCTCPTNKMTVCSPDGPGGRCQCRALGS

Table 8 peptide No. 14 = target: T12, Table 8 peptide No. 14 (human, not fully specified); assay: PEPSCAN CLIPS peptide ELISA
T12 peptide: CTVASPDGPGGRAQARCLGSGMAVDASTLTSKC

Table 8 peptide No. 3 = target: T13, Table 8 peptide No. 3 (human, not fully specified); assay: PEPSCAN CLIPS peptide ELISA
T13 peptide: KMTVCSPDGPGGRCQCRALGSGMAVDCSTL

Table 8 peptide No. 1 = target: T14, Table 8 peptide No. 1 (human, not fully specified); assay: PEPSCAN CLIPS peptide ELISA
T14 peptide: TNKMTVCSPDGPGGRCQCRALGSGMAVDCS

Table 8 peptide No. 20 = target: T15, Table 8 peptide No. 20 (human, not fully specified); assay: PEPSCAN CLIPS peptide ELISA
T15 peptide: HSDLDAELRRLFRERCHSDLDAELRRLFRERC

Table 8 peptide No. 9 = target: T16, Table 8 peptide No. 9 (human, not fully specified); assay: PEPSCAN CLIPS peptide ELISA
T16 peptide: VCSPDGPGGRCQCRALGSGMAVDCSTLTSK

Table 8 peptide No. 2 = target: T17, Table 8 peptide No. 2 (human, not fully specified); assay: PEPSCAN CLIPS peptide ELISA
T17 peptide: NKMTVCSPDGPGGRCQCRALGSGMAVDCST

Table 8 peptide No. 13 = target: T18, Table 8 peptide No. 13 (human, not fully specified); assay: PEPSCAN CLIPS peptide ELISA
T18 peptide: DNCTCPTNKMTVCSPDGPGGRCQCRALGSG

Table 8 peptide No. 4 = target: T19, Table 8 peptide No. 4 (human, not fully specified); assay: PEPSCAN CLIPS peptide ELISA
T19 peptide: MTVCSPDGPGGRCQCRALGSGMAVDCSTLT

[2] = target: T20, recombinant protein of the extracellular region of hTROP-2 (human); assay: ELISA of free antibody after equilibration with antigen in solution
T20 sequence: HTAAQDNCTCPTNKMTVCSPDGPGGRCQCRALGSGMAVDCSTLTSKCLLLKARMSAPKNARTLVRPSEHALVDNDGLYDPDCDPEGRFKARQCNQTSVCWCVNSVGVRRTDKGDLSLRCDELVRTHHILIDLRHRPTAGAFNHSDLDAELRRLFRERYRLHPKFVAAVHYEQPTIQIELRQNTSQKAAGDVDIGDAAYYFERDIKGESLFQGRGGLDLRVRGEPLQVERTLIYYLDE

human TROP-2 (hTROP-2) [3] = target: T1, human TROP-2 (hTROP-2); assay: FACS on BxPC-3 cells

mean fluorescence intensity, times that with PE-labeled anti-mouse IgG only (human TROP-2 (hTROP-2) [1]): 89 times
binding of K5-107 (Table 8 peptide No. 7): 2720
binding of K5-107 (Table 8 peptide No. 10): 2660
binding of K5-107 (Table 8 peptide No. 5): 2720
binding of K5-107 (Table 8 peptide No. 8): 2690
binding of K5-107 (Table 8 peptide No. 17): 380
binding of K5-107 (Table 8 peptide No. 6): 2720
binding of K5-107 (Table 8 peptide No. 18): 312
binding of K5-107 (Table 8 peptide No. 16): 561
binding of K5-107 (Table 8 peptide No. 19): 284
binding of K5-107 (Table 8 peptide No. 15): 874
binding of K5-107 (Table 8 peptide No. 14): 1120
binding of K5-107 (Table 8 peptide No. 3): 2750
binding of K5-107 (Table 8 peptide No. 1): 2760
binding of K5-107 (Table 8 peptide No. 20): 272
binding of K5-107 (Table 8 peptide No. 9): 2660
binding of K5-107 (Table 8 peptide No. 2): 2760
binding of K5-107 (Table 8 peptide No. 13): 1520
binding of K5-107 (Table 8 peptide No. 4): 2730
Kd [2]: 4.7 pM
mean fluorescence intensity, times that with PE-labeled anti-mouse IgG only (human TROP-2 (hTROP-2) [3]): 90 times
B1: anti-hTROP-2 monoclonal antibody K5-107 (antibody, V domains shown)
VH: QVQLQQPGSELVRPGASVKLSCKASGYTFTSYWMHWVKQRHGQGLEWIGNIYPGGGYTNYDEKFKSKGTLTVDTSSSTAYMHLSSLTSEDSAVYYCTRSSVFDYWGQGTTLTVSS
VL: DILLTQSPAILSVSPGERVSFSCRASQNIGTSIHWFQQRTNGSPRLLIKYASESISGIPSRFSGSGSGTDFTLSINSVESEDIADYYCQQSNSWPFTFGSGTKLEIK
